Tests used:
[1] = target: the molecule itself; test: SEC
[2] = substrate: CC(=O)SCCNC(=O)CCNC(=O)[C@H](O)C(C)(C)COP(=O)(O)OP(=O)(O)OC[C@H]1O[C@@H](n2cnc3c(N)ncnc32)[C@H](O)[C@@H]1OP(=O)(O)O; test: purified protein; conditions: 50 mM HEPES-K pH 8.0, 2 mM EDTA, 0.3 mM DTNB, 37 °C
[3] = substrate: CC(C(=O)O)C(=O)SCCNC(=O)CCNC(=O)[C@H](O)C(C)(C)COP(=O)(O)OP(=O)(O)OC[C@H]1O[C@@H](n2cnc3c(N)ncnc32)[C@H](O)[C@@H]1OP(=O)(O)O; test: purified protein; conditions: 50 mM HEPES-K pH 8.0, 2 mM EDTA, 0.3 mM DTNB, 37 °C
[4] = substrate: CC(C)(COP(=O)(O)OP(=O)(O)OC[C@H]1O[C@@H](n2cnc3c(N)ncnc32)[C@H](O)[C@@H]1OP(=O)(O)O)[C@@H](O)C(=O)NCCC(=O)NCCSC(=O)CCC(=O)O; test: purified protein; conditions: 50 mM HEPES-K pH 8.0, 2 mM EDTA, 0.3 mM DTNB, 37 °C
[5] = substrate: CC(C)(COP(=O)(O)OP(=O)(O)OC[C@H]1O[C@@H](n2cnc3c(N)ncnc32)[C@H](O)[C@@H]1OP(=O)(O)O)[C@@H](O)C(=O)NCCC(=O)NCCSC(=O)CCCC(=O)O; test: purified protein; conditions: 50 mM HEPES-K pH 8.0, 2 mM EDTA, 0.3 mM DTNB, 37 °C
[6] = substrate: CC(C)(COP(=O)(O)OP(=O)(O)OC[C@H]1O[C@@H](n2cnc3c(N)ncnc32)[C@H](O)[C@@H]1OP(=O)(O)O)[C@@H](O)C(=O)NCCC(=O)NCCSC(=O)C[C@@](C)(O)CC(=O)O; test: purified protein; conditions: 50 mM HEPES-K pH 8.0, 2 mM EDTA, 0.3 mM DTNB, 37 °C
[7] = substrate: CC(C)(COP(=O)(O)OP(=O)(O)OC[C@H]1O[C@@H](n2cnc3c(N)ncnc32)[C@H](O)[C@@H]1OP(=O)(O)O)[C@@H](O)C(=O)NCCC(=O)NCCSC(=O)Cc1ccccc1; test: purified protein; conditions: 50 mM HEPES-K pH 8.0, 2 mM EDTA, 0.3 mM DTNB, 37 °C
[8] = substrate: CC(O)CC(=O)SCCNC(=O)CCNC(=O)[C@H](O)C(C)(C)COP(=O)(O)OP(=O)(O)OC[C@H]1O[C@@H](n2cnc3c(N)ncnc32)[C@H](O)[C@@H]1OP(=O)(O)O; test: purified protein; conditions: 50 mM HEPES-K pH 8.0, 2 mM EDTA, 0.3 mM DTNB, 37 °C
[9] = substrate: CCCCCC(=O)SCCNC(=O)CCNC(=O)[C@H](O)C(C)(C)COP(=O)(O)OP(=O)(O)OC[C@H]1O[C@@H](n2cnc3c(N)ncnc32)[C@H](O)[C@@H]1OP(=O)(O)O; test: purified protein; conditions: 50 mM HEPES-K pH 8.0, 2 mM EDTA, 0.3 mM DTNB, 37 °C
[10] = substrate: CCCCCCCC(=O)SCCNC(=O)CCNC(=O)[C@H](O)C(C)(C)COP(=O)(O)OP(=O)(O)OC[C@H]1O[C@@H](n2cnc3c(N)ncnc32)[C@H](O)[C@@H]1OP(=O)(O)O; test: purified protein; conditions: 50 mM HEPES-K pH 8.0, 2 mM EDTA, 0.3 mM DTNB, 37 °C
[11] = substrate: CCCCCCCCCCCCCCCC(=O)SCCNC(=O)CCNC(=O)[C@H](O)C(C)(C)COP(=O)(O)OP(=O)(O)OC[C@H]1O[C@@H](n2cnc3c(N)ncnc32)[C@H](O)[C@@H]1OP(=O)(O)O; test: purified protein; conditions: 50 mM HEPES-K pH 8.0, 2 mM EDTA, 0.3 mM DTNB, 37 °C
[12] = substrate: CCCCCCCCCCCCCCCCCC(=O)SCCNC(=O)CCNC(=O)[C@H](O)C(C)(C)COP(=O)(O)OP(=O)(O)OC[C@H]1O[C@@H](n2cnc3c(N)ncnc32)[C@H](O)[C@@H]1OP(=O)(O)O; test: purified protein; conditions: 50 mM HEPES-K pH 8.0, 2 mM EDTA, 0.3 mM DTNB, 37 °C

B1: PA1835 (natural protein, Pseudomonas aeruginosa)
chain: MSQMMQMYQQVGPAQFSAMIGQFAPYFASIAPQFVELRPGYAEVTFPKRREVLNHIGTVHAIALCNAAELAAGTMTDASIPAGHRWIPRGMTVEYLAKATGDVRAVADGSQIDWQATGNLVVPVVAYVDDKPVFRAEITMYVSQA
With B1 the “stoichiometry N” value [1] was 2.

B2: PA5026 (natural protein, Pseudomonas aeruginosa)
chain: MPLPTELARHLTEEKIAFVQRSGLRAEVLEPGYVRLRMPGAGNENHIGSMYAGALFTLAELPGGALFLTSFDSARFYPIVKEMTLRFRRPAKGDIRVEARLDAERIRQLETEAGERGKAEYSLELQLTDEQGEVVAESAALYQLRSHARP
For B2, the “stoichiometry N” value [1] was 2.

B3: PA5185 (enzyme, Pseudomonas aeruginosa)
chain: MATAPRPLREQYLHFQPISTRWHDNDIYGHVNNVTYYAFFDTAVNTYLIERGGLDIQGGEVIGLVVSSSCDYFAPVAFPQRIEMGLRVARLGNSSVQYELALFLEGQREACAAGRFVHVFVERRSSRPVAIPQELRDALAALQSSAQ
In the case of B3, the “stoichiometry N” value [1] is reported as 4.

B4: PA5202 (enzyme, Pseudomonas aeruginosa, UniProt Q9HTY7 1-129, looked up)
chain: MSEMPAREQMISAYSELVGLDPVSLGDGVAEVRLPMAAHLRNRGGVMHGGALFSLMDVTMGLACSSSHGFDRQSVTLECKINYIRAVADGEVRCVARVLHAGRRSLVVEAEVRQGDKLVAKGQGTFAQL
B4 showed a Km [2] of 500 ± 100 µM, a kcat [2] of 0.2 ± 0.03 s⁻¹ and a kcat/Km [2] of 400 M⁻¹ s⁻¹. For the same protein, the Km [3] was 400 ± 40 µM, the kcat [3] was 0.3 ± 0.01 s⁻¹ and the kcat/Km [3] was 800 M⁻¹ s⁻¹. The Km [4] was 100 ± 20 µM, the kcat [4] was 0.8 ± 0.03 s⁻¹ and the kcat/Km [4] was 7000 M⁻¹ s⁻¹. For the same protein, the Km [5] was 700 ± 100 µM, the kcat [5] was 26.8 ± 0.9 s⁻¹ and the kcat/Km [5] was 40000 M⁻¹ s⁻¹. It also gave a Km [6] of 100 ± 10 µM, a Km [7] of 1100 ± 10 µM and a kcat [7] of 0.1 ± 0.01 s⁻¹. It also gave a kcat/Km [7] of 100 M⁻¹ s⁻¹, a Km [8] of 500 ± 50 µM and a kcat [8] of 2 ± 0.1 s⁻¹. The kcat/Km [8] was 4000 M⁻¹ s⁻¹, the Km [9] was 200 ± 20 µM and the Km [10] was 400 ± 60 µM. For the same protein, the kcat [10] was 2.4 ± 0.2 s⁻¹, the kcat/Km [10] was 7000 M⁻¹ s⁻¹ and the Km [11] was 20 ± 10 µM. The kcat [11] was 0.3 ± 0.03 s⁻¹, the kcat/Km [11] was 13000 M⁻¹ s⁻¹ and the Km [12] was 5 ± 1 µM. For the same protein, the kcat [12] was 0.04 ± 0.003 s⁻¹, the kcat/Km [12] was 8000 M⁻¹ s⁻¹ and the “stoichiometry N” value [1] was 4.

B5: PA2801 (enzyme, Pseudomonas aeruginosa)
chain: MADRQLLHTAHIPVRWGDMDSYGHVNNTLYFQYLEEARVAWFETLGIDLEGAAEGPVVLQSLHTYLKPVVHPATVVVELYAGRLGTSSLVLEHRLHTLEDPQGTYGEGHCKLVWVRHAENRSTPVPDSIRAAIA
With B5 the “stoichiometry N” value [1] was 4.
